Test results reported in ChEMBL document CHEMBL1143427, “Interactions of ceftobiprole with beta-lactamases from molecular classes A to D” (Antimicrob Agents Chemother, 2007).

Legend:
[1] = substrate: CC(C)(O/N=C(\C(=O)N[C@@H]1C(=O)N2C(C(=O)[O-])=C(C[n+]3ccccc3)CS[C@H]12)c1csc(N)n1)C(=O)O; assay: (§1) Ratio of Kcat to Km of Staphylococcus aureus betalactamase PC1 assessed as drug hydrolysis by spectrophotometry
[2] = substrate: CC1(C)S[C@@H]2[C@H](NC(=O)Cc3ccccc3)C(=O)N2[C@H]1C(=O)O; assay: as §1
[3] = substrate: CO/N=C(\C(=O)N[C@@H]1C(=O)N2C(C(=O)[O-])=C(C[N+]3(C)CCCC3)CS[C@H]12)c1csc(N)n1; assay: as §1
[4] = substrate: Nc1nc(/C(=N/O)C(=O)N[C@@H]2C(=O)N3C(C(=O)O)=C(/C=C4\CCN([C@@H]5CCNC5)C4=O)CS[C@H]23)ns1; assay: as §1
[5] = substrate: O=C(Cc1cccs1)N[C@@H]1C(=O)N2C(C(=O)[O-])=C(C[n+]3ccccc3)CS[C@H]12; assay: as §1
[6] = substrate: CC(C)(O/N=C(\C(=O)N[C@@H]1C(=O)N2C(C(=O)[O-])=C(C[n+]3ccccc3)CS[C@H]12)c1csc(N)n1)C(=O)O; assay: (§2) Activity of Staphylococcus aureus betalactamase PC1 assessed as drug hydrolysis by spectrophotometry
[7] = substrate: CC1(C)S[C@@H]2[C@H](NC(=O)Cc3ccccc3)C(=O)N2[C@H]1C(=O)O; assay: as §2
[8] = substrate: CO/N=C(\C(=O)N[C@@H]1C(=O)N2C(C(=O)[O-])=C(C[N+]3(C)CCCC3)CS[C@H]12)c1csc(N)n1; assay: as §2
[9] = substrate: Nc1nc(/C(=N/O)C(=O)N[C@@H]2C(=O)N3C(C(=O)O)=C(/C=C4\CCN([C@@H]5CCNC5)C4=O)CS[C@H]23)ns1; assay: as §2
[10] = substrate: O=C(Cc1cccs1)N[C@@H]1C(=O)N2C(C(=O)[O-])=C(C[n+]3ccccc3)CS[C@H]12; assay: as §2
[11] = substrate: CC(C)(O/N=C(\C(=O)N[C@@H]1C(=O)N2C(C(=O)[O-])=C(C[n+]3ccccc3)CS[C@H]12)c1csc(N)n1)C(=O)O; assay: (§3) Ratio of Kcat to Km of Escherichia coli TEM1 assessed as drug hydrolysis by spectrophotometry
[12] = substrate: CC1(C)S[C@@H]2[C@H](NC(=O)Cc3ccccc3)C(=O)N2[C@H]1C(=O)O; assay: as §3
[13] = substrate: Nc1nc(/C(=N/O)C(=O)N[C@@H]2C(=O)N3C(C(=O)O)=C(/C=C4\CCN([C@@H]5CCNC5)C4=O)CS[C@H]23)ns1; assay: as §3
[14] = substrate: CC(C)(O/N=C(\C(=O)N[C@@H]1C(=O)N2C(C(=O)[O-])=C(C[n+]3ccccc3)CS[C@H]12)c1csc(N)n1)C(=O)O; assay: (§4) Activity of Escherichia coli TEM1 assessed as drug hydrolysis by spectrophotometry
[15] = substrate: CC1(C)S[C@@H]2[C@H](NC(=O)Cc3ccccc3)C(=O)N2[C@H]1C(=O)O; assay: as §4
[16] = substrate: Nc1nc(/C(=N/O)C(=O)N[C@@H]2C(=O)N3C(C(=O)O)=C(/C=C4\CCN([C@@H]5CCNC5)C4=O)CS[C@H]23)ns1; assay: as §4
[17] = substrate: O=C(Cc1cccs1)N[C@@H]1C(=O)N2C(C(=O)[O-])=C(C[n+]3ccccc3)CS[C@H]12; assay: as §4

B1: Beta-lactamase (Staphylococcus aureus), P00807 (protein)
chain: MKKLIFLIVIALVLSACNSNSSHAKELNDLEKKYNAHIGVYALDTKSGKEVKFNSDKRFAYASTSKAINSAILLEQVPYNKLNKKVHINKDDIVAYSPILEKYVGKDITLKALIEASMTYSDNTANNKIIKEIGGIKKVKQRLKELGDKVTNPVRYEIELNYYSPKSKKDTSTPAAFGKTLNKLIANGKLSKENKKFLLDLMLNNKSGDTLIKDGVPKDYKVADKSGQAITYASRNDVAFVYPKGQSEPIVLVIFTNKDNKSDKPNDKLISETAKSVMKEF
For B1, the kcat/Km [1] was 1.2e-05 s⁻¹ µM⁻¹, the kcat/Km [2] was 19 s⁻¹ µM⁻¹ and the kcat/Km [3] was 3.3e-05 s⁻¹ µM⁻¹. For the same protein, the kcat/Km [4] was 0.00031 s⁻¹ µM⁻¹, the kcat/Km [5] was 0.0013 s⁻¹ µM⁻¹ and the Km [6] was 29 µM. For the same protein, the kcat [6] was 0.00035 s⁻¹, the Km [7] was 3.4 µM and the kcat [7] was 65 s⁻¹. For the same protein, the Km [8] was 61 µM, the kcat [8] was 0.002 s⁻¹ and the Km [9] was 78 µM. It also gave a kcat [9] of 0.024 s⁻¹, a Km [10] of 110 µM and a kcat [10] of 0.14 s⁻¹.

B2: Beta-lactamase TEM (Escherichia coli), P62593 (protein)
chain: MSIQHFRVALIPFFAAFCLPVFAHPETLVKVKDAEDQLGARVGYIELDLNSGKILESFRPEERFPMMSTFKVLLCGAVLSRVDAGQEQLGRRIHYSQNDLVEYSPVTEKHLTDGMTVRELCSAAITMSDNTAANLLLTTIGGPKELTAFLHNMGDHVTRLDRWEPELNEAIPNDERDTTMPAAMATTLRKLLTGELLTLASRQQLIDWMEADKVAGPLLRSALPAGWFIADKSGAGERGSRGIIAALGPDGKPSRIVVIYTTGSQATMDERNRQIAEIGASLIKHW
For B2, the kcat/Km [11] was 1.2e-05 s⁻¹ µM⁻¹, the kcat/Km [12] was 100 s⁻¹ µM⁻¹ and the kcat/Km [13] was 0.029 s⁻¹ µM⁻¹. The Km [14] was 200 µM, the kcat [14] was 0.0023 s⁻¹ and the Km [15] was 12 µM. It also gave a kcat [15] of 1200 s⁻¹, a Km [16] of 300 µM and a kcat [16] of 8.8 s⁻¹. The Km [17] was 560 µM and the kcat [17] was 980 s⁻¹.
